Assays:
[1] = molecular target: recombinant fragment of RIIα (RII 1-45); assay: SPR (IAsys), gravin 1526-1780 coupled to the cuvette, RIIα 1-45 at 25 to 150 nM

Row | IC50 of inhibition of PKC activity toward peptide substrate … (PKC βII) [µM] | Kd [1] [nM] | kon [1] [M⁻¹ s⁻¹] | Binder
1 | 0.5 |  |  | gravin fragment residues 265-556 (protein) KEEGEEKQEKEPSKSAESPTSPVTSETGSTFKKFFTQGWAGWRKKTSFRKPKEDEVEASEKKKEQEPEKVDTEEDGKAEVASEKLTASEQAHPQEPAESAHEPRLSAEYEKVELPSEEQVSGSQGPSEEKPAPLATEVFDEKIEVHQEEVVAEVHVSTVEERTEEQKTEVEETAGSVPAEELVGMDAEPQEAEPAKELVKLKETCVSGEDPTQGADLSPDEKVLSKPPEGVVSEVEMLSSQERMKVQGSPLKKLFTSTGLKKLSGKKQKGKRGGGDEESGEHTQVPADSPDS
2 |  | 100 | 160000 | gravin fragment residues 1526-1780 (protein) VAIEDLEPENGILELETKSSKLVQNIIQTAVDQFVRTEETATEMLTSELQTQAHVIKADSQDAGQETEKEGEEPQASAQDETPITSAKEESESTAVGQAHSDISKDMSEASEKTMTVEVEGSTVNDQQLEEVVLPSEEEGGGAGTKSVPEDDGHALLAERIEKSLVEPKEDEKGDDVDDPENQNSALADTDASGGLTKESPDTNGPKQKEKEDAQEVELQEGKVHSESDKAITPQAQEELQKQERESAKSELTES

From patent US6090929
